The results in this text go back to PMC7581431.

One may read the stoichiometry N as the number of molecules, sites or subunits per partner or assembly.

One test has as its target CK1ε. Put plainly: BioID proximity labeling (mass spectrometry). The settings on record: +Wnt3a.
The target of test [1] is Notch2 [human (endogenous in Flp-In-T-REx-293)]. The test can be described thus: BioID proximity labeling (mass spectrometry). The conditions noted are these: +Wnt3a.
Test [2] has as its target Lip-NKD-HisC (human (identical sequence in mouse and human)) (UniProt Q969G9). Put plainly: aggregation and co-aggregation assay read by PAGE; purified proteins in 15 mM acetate, 150 mM NaCl, pH 5.0 mixed in different ratios; after 10 min 1 M Tris-HCl pH 8.0 added to 200 mM; after 20 min boiled 10 min in LDS sample buffer; PAGE under denaturing and reducing conditions.
Test [3] addresses CELSR1 [human (endogenous in Flp-In-T-REx-293)]. The test can be described thus: BioID proximity labeling (mass spectrometry). The settings on record: +Wnt3a.

Lip-NKD-HisC (human (identical sequence in mouse and human)), sequence (Q969G9 whole entry): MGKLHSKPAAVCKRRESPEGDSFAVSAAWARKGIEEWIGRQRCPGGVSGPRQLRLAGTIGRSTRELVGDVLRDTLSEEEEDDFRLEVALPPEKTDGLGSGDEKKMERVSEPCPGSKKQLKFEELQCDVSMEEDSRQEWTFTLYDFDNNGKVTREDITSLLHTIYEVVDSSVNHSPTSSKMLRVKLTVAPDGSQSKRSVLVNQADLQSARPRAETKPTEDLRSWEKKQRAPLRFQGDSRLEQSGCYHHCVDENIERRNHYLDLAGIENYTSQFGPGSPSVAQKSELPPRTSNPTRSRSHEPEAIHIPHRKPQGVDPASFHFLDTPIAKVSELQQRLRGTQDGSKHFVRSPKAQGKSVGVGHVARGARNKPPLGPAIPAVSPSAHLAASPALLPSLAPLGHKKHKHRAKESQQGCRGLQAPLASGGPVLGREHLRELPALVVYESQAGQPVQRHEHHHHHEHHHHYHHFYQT

In the test with CK1ε, Nkd1-BirA* (from UniProt Q99MH6) G2A gave a response (unweighted spectral counts) of 8.
“Nkd1-BirA* mutant G2A [murine] / Notch2 [human (endogenous in Flp-In-T-REx-293)] chain 1 G2A”: the response (unweighted spectral counts) in test [1] was determined as 1.
For “Lip-NKD-HisC (from UniProt Q969G9 1-470) (domain or fragment)”, the stoichiometry N in test [2] came out at 10.
The substance “Nkd1-BirA* mutant G2A [murine] / CELSR1 [human (endogenous in Flp-In-T-REx-293)] chain 1 G2A” came in with a response (unweighted spectral counts) in test [3] of 1.
Turning to “MBP-Axin1-HisC (from UniProt O15169 1-862) (domain or fragment)”, in test [2], the molecules per core (molecules per core) is less than 5.
